From PMC7143960, “Protein Engineering of a Pyridoxal-5′-Phosphate-Dependent L-Aspartate-α-Decarboxylase from Tribolium castaneum for β-Alanine Production” (Molecules, 2020)

Experiments:
[1] = test system: N[C@@H](CC(=O)O)C(=O)O; assay: purified protein; type: biochemical, Tribolium castaneum; details: 0.1 M phosphate pH 7.0, 37 °C, L-aspartate 0.5-100 mM, apparent parameters
[2] = molecular target: T1, TcPanD (PLP-dependent L-aspartate-α-decarboxylase) (Tribolium castaneum, UniProt A7U8C7); assay: enzyme activity versus added PLP; type: biochemical; details: 0.1 M phosphate pH 7.0, 37 °C, L-aspartate substrate
T1 sequence (A7U8C7 1-540): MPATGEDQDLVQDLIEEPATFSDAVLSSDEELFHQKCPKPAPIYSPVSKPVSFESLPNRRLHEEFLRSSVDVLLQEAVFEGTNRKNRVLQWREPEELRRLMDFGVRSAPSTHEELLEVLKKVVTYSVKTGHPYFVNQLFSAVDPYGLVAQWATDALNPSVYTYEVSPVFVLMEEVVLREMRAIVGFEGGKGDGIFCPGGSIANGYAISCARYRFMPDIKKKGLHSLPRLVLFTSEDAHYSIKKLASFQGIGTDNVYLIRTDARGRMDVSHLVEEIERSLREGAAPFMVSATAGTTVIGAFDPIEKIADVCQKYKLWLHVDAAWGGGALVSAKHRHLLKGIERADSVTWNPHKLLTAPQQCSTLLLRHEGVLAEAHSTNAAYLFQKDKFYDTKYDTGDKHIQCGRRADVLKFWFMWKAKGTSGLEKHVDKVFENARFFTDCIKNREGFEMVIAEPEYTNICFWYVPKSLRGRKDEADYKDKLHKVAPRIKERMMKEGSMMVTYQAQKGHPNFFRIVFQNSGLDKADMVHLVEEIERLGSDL

[3] = substrate: N[C@@H](CC(=O)O)C(=O)O; assay: purified protein; details: 0.1 M phosphate pH 7.0, 37 °C, L-aspartate 0.5-100 mM, apparent parameters

Molecule: TcPanD (PLP-dependent L-aspartate-α-decarboxylase) (Tribolium castaneum; K305S/R98H)
- Km [1]: 1230 µM
- Vmax [1]: 7.05 µmol/min/mg
- kcat [1]: 7.64 s⁻¹
- kcat/Km [1]: 6210 M⁻¹ s⁻¹

Molecule: Cc1ncc(COP(=O)(O)O)c(C=O)c1O [pyridoxal 5’-phosphate]
- enzyme activity versus added PLP [2]: the enzymatic activities of the two proteins reached the highest levels under the treatment

B1: TcPanD (PLP-dependent L-aspartate-α-decarboxylase) (Tribolium castaneum) (protein)
chain: MPATGEDQDLVQDLIEEPATFSDAVLSSDEELFHQKCPKPAPIYSPVSKPVSFESLPNRRLHEEFLRSSVDVLLQEAVFEGTNRKNRVLQWREPEELRRLMDFGVRSAPSTHEELLEVLKKVVTYSVKTGHPYFVNQLFSAVDPYGLVAQWATDALNPSVYTYEVSPVFVLMEEVVLREMRAIVGFEGGKGDGIFCPGGSIANGYAISCARYRFMPDIKKKGLHSLPRLVLFTSEDAHYSIKKLASFQGIGTDNVYLIRTDARGRMDVSHLVEEIERSLREGAAPFMVSATAGTTVIGAFDPIEKIADVCQKYKLWLHVDAAWGGGALVSAKHRHLLKGIERADSVTWNPHKLLTAPQQCSTLLLRHEGVLAEAHSTNAAYLFQKDKFYDTKYDTGDKHIQCGRRADVLKFWFMWKAKGTSGLEKHVDKVFENARFFTDCIKNREGFEMVIAEPEYTNICFWYVPKSLRGRKDEADYKDKLHKVAPRIKERMMKEGSMMVTYQAQKGHPNFFRIVFQNSGLDKADMVHLVEEIERLGSDL
- Km [3]: 1350 µM
- Vmax [3]: 2.88 µmol/min/mg
- kcat [3]: 3.12 s⁻¹
- kcat/Km [3]: 2310 M⁻¹ s⁻¹
